{"source": "patent US20150368309A1", "about": "(SHIRE HUMAN GENETIC THERAPIES, published 2015)", "target": "the molecule itself", "assay": "DSS crosslinking, anti-Flt-1 Western blot", "experimental": "PLGF and sFlt-1 (Human sFlt-1:Abcam, Cat#54346) were incubated on ice for 2 hrs in 100 μL crosslinking buffer. After the incubation, the crosslinking reagent, Disuccinimidyl suberate (DSS), was added, 1 μL of 25 mM stock DSS (in DMSO) to a final concentration of 250 μM. After brief vortexing, the mixture was incubated on ice for additional 15 min.\nTo analyze the crosslinked complexes using Western blot, the pellets were solubilized with 30 μL of 1×LDS buffer containing 10 mM DTT. After heating the dissolved pellets to 37° C. for 15 min, 10 μL of the sample was loaded onto 8 to 16% Tris-glycince SDS-PAGE gel. The gels were transferred to PVDF membranes by standard method for anti-PLGF or anti-Flt-1 Western blot analysis.\nWT PLGF forms dimers in its native state, and the binding models of WT PLGF with hsFlt-1 were established. A PLGF C59A monomer binding with Flt-1 receptor monomer is also found. The binding complexes, WT PLGF-hsFlt-1 and PLGF C59A-hsFlt-1, were crosslinked by DSS through amine groups on the surface of PLGF or hsFlt-1 molecules. After separating on SDS-PAGE, PLGF-containing or Flt-1 containing binding complexes were detected on Western blot by anti-PLGF or anti-Flt-1 antibodies."}
{"protein": "Human sFlt-1 (Abcam, Cat#54346), without Fc fusion (receptor, UniProt P17948-2 27-687, looked up, also called hsFlt-1; commercial sFlt-1 that doesn't contain Fc fusion) SKLKDPELSLKGTQHIMQAGQTLHLQCRGEAAHKWSLPEMVSKESERLSITKSACGRNGKQFCSTLTLNTAQANHTGFYSCKYLAVPTSKKKETESAIYIFISDTGRPFVEMYSEIPEIIHMTEGRELVIPCRVTSPNITVTLKKFPLDTLIPDGKRIIWDSRKGFIISNATYKEIGLLTCEATVNGHLYKTNYLTHRQTNTIIDVQISTPRPVKLLRGHTLVLNCTATTPLNTRVQMTWSYPDEKNKRASVRRRIDQSNSHANIFYSVLTIDKMQNKDKGLYTCRVRSGPSFKSVNTSVHIYDKAFITVKHRKQQVLETVAGKRSYRLSMKVKAFPSPEVVWLKDGLPATEKSARYLTRGYSLIIKDVTEEDAGNYTILLSIKQSNVFKNLTATLIVNVKPQIYEKAVSSFPDPALYPLGSRQILTCTAYGIPQPTIKWFWHPCNHNHSEARCDFCSNNEESFILDADSNMGNRIESITQRMAIIEGKNKMASTLVVADSRISGIYICIASNKVGTVGRNISFYITDVPNGFHVNLEKMPTEGEDLKLSCTVNKFLYRDVTWILLRTVNNRTMHYSISKQKMAITKEHSITLNLTIMNVSLQDSGTYACRARNVYTGEEILQKKEITIRGEHCNKKAVFSRISKFKSTRNDCTTQSNVKH", "values": [{"measurement": "binding result", "value": "no binding"}]}
